According to patent US20080227707A1, “BIOACTIVE PEPTIDES AND UNIQUE IRES ELEMENTS FROM MYELIN PROTEOLIPID PROTEIN PLP/DM20” (WAYNE STATE UNIVERSITY, priority 2002, published 2008):
Peptide text beside a SMILES is read from it. * marks the point of attachment. Cbz = O=C(OCc1ccccc1)*

What was measured:
293 cells = assay: Viability of PIRP expressing cells during MG132-induced cellular stress and apoptosis (Trypan Blue exclusion); type: cell-based, human; details: 293 control cells = 100%, not statistically significant, n=2
Method: FIGS. 6A-6C are bar graphs showing growth factor activity associated with the PIRP-M and PIRP-L proteins. […] Colony number was determined after calcium phosphate transfection of 293 cells and G418 selection. The control plasmid was pBSII vector comprising the […] but no mammalian selectable marker. The PLP/DM20-GFP Pro-constructs are missing the CMV promoter and the PLP/DM20-GFP M1L vectors contain the Met^1 mutation and are unable to translate the full-length proteolipid proteins (see description of FIGS. 2B-2C). Increase in colony number following PIRP expression was highly stastically significant (Student's t-test). […] Pools of 293 cells derived from the transfectants (see above) were grown in toxic (50 μM) and subtoxic (25 μM) concentrations of MG132 for 24 hrs. Viable cells were identified using Trypan Blue exclusion. […] Subconfluent 293 cultures were treated with CM for 48 hrs and 72 hrs. Total and viable cell numbers were determined using Trypan Blue exclusion and expressed as % of control (293 cells treated with 293 CM) cell number.
Although PIRP expression increased colony number, the biochemical mechanism of this response has yet to be defined. […] After 24 hrs, viable cells were counted (Trypan Blue exclusion) (FIG. 6B).

human 293 cell line = assay: Colony formation assay after transfection and G418 selection; type: cell-based; details: 293 cells
Method: Transfections were performed in 100×20 mm dishes using the Profection® Mammalian Transfection System—a calcium phosphate transfection kit (Promega, Madison, Wis.). Cells grown to 50-70% confluence were fed 3 hrs prior to addition of the calcium phosphate/DNA mixture. A standard transfection assay contained 15 μg of plasmid DNA, while double transfections were done with 10 μg of each plasmid (20 μg total). The culture medium was removed 24 hrs post transfection and cells were processed for microscopic analysis or passed for G418 or Hygromycin B selection 48 hrs post transfection.
All constitutive expression cell lines were isolated by selection with the G418 antibiotic. 24 hrs after cell passage (see above), transfected 293 and NT2 cells were treated with 500 μg/mL G418 (Invitrogen Life Technologies) in DMEM. The selection medium was changed every second day for 2-2.5 weeks, during which the majority of cells detach and G418 resistant colonies emerge. Depending upon the number and density of colonies, surviving cells were grown for 3-5 days in G418-free medium prior to subcloning. Once colonies reached the appropriate size, each plate was briefly examined for fluorescence, and colonies with the lowest number of nonfluorescent, contaminating cells were marked for subcloning. […]

[1] = test system: 293, NT2, and 293-Tet-On cell lines; assay: Proteasome inhibition assay, MG132-induced cell death; type: cell-based, human; details: 50 μM MG132, 24 hrs
Method: Proteasome inhibition assays were carried out in stably transfected cell lines using MG132 (Z-Leu-Leu-Leucinal)—a potent, cell permeable inhibitor of the 26S proteasomal complex (Calbiochem, San Diego, Calif.). The MG132 concentration in all experiments (50 μM) was sufficient to insure 100% cell death of all 293, NT2, and 293-Tet-On cell lines in 24 hrs.
To confirm that 293 and NT2 cultures undergo apoptosis within 24 hrs post treatment with 50 μM MG132, cells were assayed for poly(ADP-ribose) polymerase (PARP) cleavage by caspase-3. The 293 and NT2cultures were grown in 100 mm dishes to ˜90% confluence and passed at equal density into a six well tray. At 70-80% confluence, wells were treated with 50 μM MG132 in DMEM and harvested for proteins at 0.5 hrs, 1 hr, 2 hrs, 4 hrs, 6 hrs, and 24 hrs after treatment. The PARP cleavage products were resolved on 4% SDS PAGE gels. The Western blots were incubated with an anti-PARP (BIOMOL Research Laboratories) primary antibody diluted 1:2000 in 3% BSA, and a HRP conjugated goat anti-mouse secondary antibody (Amersham) diluted 1:2500 in 3% BSA.

Molecule: PIRP-L: ~7 kDa polypeptide translated from Met234 of PLP/DM20 mRNA via IRES; SEQ ID NO:8 (MTFHLFIAAFVGAAATLVSLLTFMIAATYNFAVLKLMGRGTKF; listed as Homo sapiens)
- cellular viability (viable cell number), % of control cell lines (293 cells; MG132-treated, 25 μM and 50 μM, 24 hrs): small increase in viability
- cellular viability (viable cell number), % of control cell lines (293 cells; untreated cells): not detected
- colony count in PIRP-L transfectants compared to PIRP-M transfectants (human 293 cell line; p=0.02): increased colony count

Molecule: CC(C)C[C@@H](C=O)NC(=O)[C@H](CC(C)C)NC(=O)[C@H](CC(C)C)NC(=O)OCc1ccccc1 [MG132, Z-Leu-Leu-Leucinal] (Cbz-Leu-Leu-Leu-aldehyde)
- cell death [1]: 100%

B1: PIRP-M: ~10 kDa polypeptide translated from Met205 of PLP/DM20 mRNA via IRES; SEQ ID NO:6 (protein, listed as Homo sapiens)
chain: MYGVLPWNAFPGKVCGSNLLSICKTAEFQMTFHLFIAAFVGAAATLVSLLTFMIAATYNFAVLKLMGRGTKF
- increase in colony number over controls (human 293 cell line; calcium phosphate transfection, G418 selection, colonies grown 2 weeks, vs pBSII PIRP-M control DNA lacking G418 resistance): 600-700 fold
